Reference: the DeepSol protein solubility set

experiment: soluble on expression in E. coli; label from the status in PepcDB or PDB records

Sequence | soluble on expression in E. coli
TSKFQWTSDFNIGFNRNRVTELYGGKPELKGLKRLEEGRDMDEWYLREWAGVDPANGSPLWYTTDENGKRTTTDSYNKADRVYCGSAAPKFTGGWMNSFSYKGFTLTANFDFVYGNLLYNQSRELLDSDGAYADYNSMKLKSGWKRWEKEGDIATHPKAINGGNKNSNKSSSRYLEKGNYFSLRNLSLGYSIPEKLCGKLGLQRVNVSCSADNLFTLTPFSGVSPQLSDSSTDGYAGTIYPLSRRIVFGLNVSF | not soluble
TSPTTTSTGTGTGSSTDQAISPLVEGENAPEVTTAKLGFIALTDAAPLIIAKEKGFYAKYGMPDVEVLKQASWGTTRDNLVLGSASGGIDGAHILTPMPYLITMGTVTDGKPTPMYILARLNVNGQGIQLGNNYKDLKVGTDAAPLKEAFAKVTDPKVAMTFPGGTHDMWIRYWLAAGGMEPGKDFSTIVVPPAQMVANVKVNAMESFCVGEPWPLQTVNQGVGYQALTTGQLWKDHPEKAFGMRADWVDQNPKAAKALLMAVMEAQQWCDQAENKEEMCQILSKREWFKVPFEDIIDRSKGIYNFGNGQETFEDQEIMQKYWVDNASYPYKSHDQWFLTENIRWGYLPASTDTKAIVDKVNREDLWREAAQALEVPADQIPSSPSRGIETFFDGITFDPENPQAYLDSLKIKSIKA | soluble
TTGSDGKATFDVTQNETYGLATPLTATLMRDTTKSATMDVIFTVITSPNSPKAKYWGHMPDTFTSRAGVTFKRPLLAAEATLGSSVSNNNESWSYLFYTNKVTPDCPVEYQPRLNELQGLYNDHPGGTILTDLGLPITAGSGNWWTYEMSTTDALTWYYGVINLKTGQSTTTINGYALMLCL | not soluble
TTVNETTPIAPAKVLPDAQTVTSVRHWTDTLFSFRVTRPQTLRFRSGEFVMIGLLDDNGKPIMRAYSIASPAWDEELEFYSIKVPDGPLTSRLQHIKVGEQIILRPKPVGTLVIDALLPGKRLWFLATGTGIAPFASLMREPEAYEKFDEVIMMHACRTVAELEYGRQLVEALQEDPLIGELVEGKLKYYPTTTREEFHHMGRITDNLASGKVFEDLGIAPMNPETDRAMVCGSLAFNVDVMKVLESYGLREGANSEPREFVVEKAFVGEGI | soluble
TVEDSESDMDDAKLDALMGNEGEEEEDDLAEIDTSNIITSGRRTRGKVIDYKKTAEELDKKE | soluble
TVPDFSAFAVEVPALKSNDEAIDAQIDKLRERFGELKDTKRKLKTDDFAIIDIEAAIDGEKLEEATTEGMSYQVGAGDLIDGLDTALRGLKAGESAEFTTTLKAGEHEGKEAAVTVTVQQTKERKLPELDEEFVQTASEFDTVEELRESIAEQVAEQAKAEQATAIRDEVLKAALAEATFELPEGVVEDQIHAQLHQLLNQVGGDEAALNAALEAQGTSREQFDADNRKNSEEAVRTQLFLDALAEQEQPEVSQQELTDHILFTAQSYGMDPNQFITQLQQSGQIGNLFSDVRRGKALAAAICRVSVKDDEGKAVDPSEYFGEEEESAEESE | not soluble
TVPITSAKAAELPPGNYRLVVFELENFQGRRAEFSGECSNLADRGFDRVRSIIVSAGPWVAFEQSNFRGEMFILEKGEYPRWNTWSSSYRSDRLMSFRPIKMDAQEHKISLFEGANFKGNTIEIQGDDAPSLWVYGFSDRVGSVKVSSGTWVGYQYPGYRGYQYLLEPGDFRHWNEWGAFQPQMQSLRRLRDKQWHLEGSFPVLATEPPK | soluble
TWCPGCGNFAILKAFERASRRVIEEGFDIAVSSGIGCHGKISDYLSLPGFHVIHGRVPPFLTGLKLANPNLVVVGFSGDGDGLNEGVEHLVHAARRNTDITIILHNNGVFGLTTGQVTATSPRGRKSRSTPRGNPEYPLNPCHLMLVSGATFVARVFAGEQERLSEVFYNAMKHKGFSFVEVMQPCVSFNNFWEMRK | not soluble
TWILTADSPSLLGTVDVVTRYLFEQRCYVTEHHSFDDRLAQRFFIRVEFRAGDGFDEASFRAGLAERVAPFGMRTELTAPGYRSQVAIMVSKADHCLNDLLYRQRIGQLPMDVVAVISNHPDLEPLARWHGIPYHHFPLDPNDKPAQEARVWQVLEESGAELVILARYMQVLSPELCRRLDGWAINIHHSLLPGFKGAKPYHQAYQKGVKLVGATAHYINNDLDEGPIIAQGVETVDHAHYPEDLIAKGRDIECLTLARAVGYHIERRVFLNANRTVVL | not soluble
VAAAPRSPEDRRAQILDVAVRLLETVPFDDLSMDQVAAEAGVSPPLLFHYFKNKQGFRNAVLEASASELQRRMTPDAALPVSGQLRAGVETFADAVIEHPTIYLAVMRMAGSGDERMRQIYRGMRRTFTRWIGASLAEFGVPTTPALEAAISGWQAFMEEIVLSWLDEPTMDRTDMIDLCERAFYHLLPAAGVDVDALDVTR | soluble
VAWFTDEEGGRGRIEAGQLADLVVPDKDFFSCPEDDISFLVSELTMVGGRIVYAAGGFAALDDNPLPPAMPDWSPARTFKGYAAWGDPDGAGRHSLQRRAVAACGCANACGLHGHQHARAWGTALPVSDAKGFFGALGCSCWA | not soluble
VDIYASMTPAKDVGGDFYDFFQIDDERIGLVIADVSGKGVPASLFMAVSRTLLRATALRGVSSAECLTYANKLLCKESLDSMFVTVFYGIYHYKTGMMDYTNAGHNPPYLLRGGRTVECLPVASNFVVGVFDDIEFESNTLTFGIGDTLLLYTDGVTEAFNDKREQFSESNLQDILASMHESSSAKEVVTSVLQSVKTFSGDYPQSDDITLLSLQRIK | not soluble
VDLGGVRRRISLMARQHGPTAQRHVASPMTVDIARLGRRPGAMFELHDTVHSPARIGLELIAIDQGALLDLDLRVESVSEGVLVTGTVAAPTVGECARCLSPVRGRVQVALTELFAYPDSATDETTEEDEVGRVVDETIDLEQPIIDAVGLELPFSPVCRPDCPGLCPQCGVPLASEPGHRHEQIDPRWAKLVEMLGPESDTLRGER | not soluble
VERAQDGLYTIDERGVIDFCNDSFAATLGYEPGKLCGTHILEVLAPGEFPKGQAAVEELLEAPDQESTTVDLTFRRKDGAERELSFNHTLTHDEAGNYNGVIGVARDVT | not soluble
VFGYVTEDGDTALHLAVIHQHEPFLDFLLGFSAGHEYLDLQNDLGQTALHLAAILGEASTVEKLYAAGAGVLVAERGGHTALHLACRVRAHTCACVLLQPRPSHPRDASDTYLTQSQDCTPDTSHAPAAVDSQPNPENEEEPRDEDWRLQLEAENYDGHTPLHVAVIHKDAEMVRLLRDAGADLNKPEPTCGRTPLHLAVEAQAASVLELLLKAGADPTARMYGGRTPLGSALLRPNPILARLLRAHGAPEPEDGGDKLSPCEEEGEDEDSDNRDEGDEYDD | soluble
VGKPKMDVDLLQVDADLKKEIFDAYYNTMKTAVMTEEKLAREVEIDKVKDTVKEVYAEKFSEHEEEAQLLKEVKQIAEDLEKDVVRELITIDKIRPDGRKLDEIRH | not soluble
VGVKPVGSDPDFQPELSGAGSRLAVVKFTMRGCGPCLRIAPAFSSMSNKYPQAVFLEVDVHQCQGTAATNNISATPTFQFFRNKVRIDQYQGADAVGLEEKIKQHLE | soluble
VIIGLHNPKSPTNVGAVMRAAGCYNATQVRYNGTRYARAVKFQTDTQNSHERIGLVEMDDLTAGLDSEVKIVCVELAVGATALPHFTHPEQAIYLFGPEDGSLPQEVVDQAHYVVYVPTHGCMNLAATVNVVLYDRLAKSL | not soluble
VILIIVAYLVGILIRKRNDSRIAQLEERKQKLFDLPINEEIEEVKNLHLIGQSQTTFREWNQKWIDISTNSFADIENHIFEAENMNDNFHFFKASAEINNIESQLDLVEEDIKSIREALSRLKEQEEKNSARVKHALDLYEELQNSIEGNSDNFGSTLDEITKQLKNIESEFAEFVTLNSSGDPVEASSILDRAEEHTIALGQITEKIPAIVAKLEDDFPDQLDDLESGYRKLIEQNYHFPEKNIERHFQEIREAIRSNSSELVSLDLDRAEEKNADIQEKIDNLYSIFEREIASYKVVMRQKKILPDYLKHAKENNKKLQEELERLMLTYIFDETYEADVRSFTSDISSVETAVLPTLENFDNQVKPFSELEKIFEKSLNTLSAVENGQVEVFENLRAIEKNEAKARDELDVYIDKLHVIKRYMEKRNLPGIPESFLSVFFSTSAQIEALMDELSRGRINIDAVMRLTKTSKNAIEHLEETAYLVVQNATLTEQLLQYSNRYRSFEPAVQSSFEHALKLFEVDHDYDASLEEISYALETVEPGVTDRFVSSYEK | not soluble
VIRIGTRGSLLATTQAATVRDALIAGGHSAELVTISTEGDRSMAPIASLGVGVFTTALREAMEAGLVDAAVHSYKDLPTAADPRFTVAAIPPRNDPRDAVVARDGLTLGELPVGSLVGTSSPRRAAQLRALGLGLEIRPLRGNLDTRLNKVSSGDLDAIVVARAGLARLGRLDDVTETLEPVQMLPAPAQGALAVECRAGDSRLVAVLAELDDADTRAAVTAERALLADLEAGCSAPVGAIAEVVESIDEDGRVFEELSLRGCVAALDGSDVIRASGIGSCGRARELGLSVAAELFELGARELMWGVRH | not soluble
VIRPKTLGQKHYVDAIDTNTIVFGLGPAGSGKTYLAMAKAVQALQSKQVSRIILTRPAVEAGEKLGFLPGTLNEKIDPYLRPLHDALRDMVEPEVIPKLMEAGIVEVAPLAYMRGRTLNDAFVILDEAQNTTPAQMKMFLTRLGFGSKMVVTGDITQVDLPGGQKSGLRLVRHILRGVDDVHFSELTSSDVVRHQLVGHIVDAYEDYEEREARELKRKRQETRP | soluble
VKMIFIFIDGFGIGKEDASVNPLANPELPNINYILNKAGAIPTDACLDVPGLPQSATGQTTIFTGQNASKVLSRHLHGQPTITLKKMIIENNLFKELIKRGFSVTNSNVYRTPYIEKIKDPKERKYRPSVTTVMTLSCGLNLRTVEEYITGDGVYHDIIGEILKNEGYVEELITPREAAQRLYSLSRKYDFTLFEYFVTDILGHKMEMEEAVEKLKILDAFLGELLNLYNEDEDIIFITSDHGNIEDLTVNTHTFNKVPTVILGKIPENVEIEINSLTDIMPTILKIFDAKGEL | soluble
VKTGLYSLLGLIMRSALIDNFIESLNRSKYFHVVCSDPKPICNFIEKNLVRGATIVNAKGSFTGDNKYIILTVLSPSQAVKLRNFIKENSPGAFLLISNTSEIIGKGFHSV | not soluble
VKVRYENDKYLIPFASLDANQRMEFDLKDPQGKVILLAGKKLTSRKIKELKENHLEWVEYPMDILLNRHLAEPVMVGKEVLLDMLTQLDKNKLEKIHDLG | not soluble
VNQQQLQQLMDMGFTREHAMEALLNTSTMEQATEYLLTHP | soluble
VNSHCSHTFITDNRSPRARRGHAMSTLHKVKAYFGMAPMEDYDDEYYDDRAPSRGYARPRFDDDYGRYDGRDYDDARSDSRGDLRGEPADYPPPGYRGGYADEPRFRPREFDRAEMTRPRFGSWLRNSTRGALAMDPRRMAMMFEDGHPLSKITTLRPKDYSEARTIGERFRDGSPVIMDLVSMDNADAKRLVDFAAGLAFALRGSFDKVATKVFLLSPADVDVSPEERRRIAETGFYAYQ | not soluble
VPLPVPDFTASPMTISVGESVQFQDQTTNNPTNWEWTFEGGQPAMSTEQNPLVSYSHPGQYDVTLKVWNASGSNTITKEKFITVNAVMPVAEFVGTPTEIEEGQTVSFQNQSTNATNYVWIFDGGTPATSEDENPTVLYSKAGQYDVTLKAISASGETVKTKEKYITVKKAPVPA | not soluble
